# Changes are numbered by the printed parent chain.
# T1: human FcγRIIb constitutively expressed on MDCK cells (human, UniProt P31994 43-310)
# T1 sequence (looked up): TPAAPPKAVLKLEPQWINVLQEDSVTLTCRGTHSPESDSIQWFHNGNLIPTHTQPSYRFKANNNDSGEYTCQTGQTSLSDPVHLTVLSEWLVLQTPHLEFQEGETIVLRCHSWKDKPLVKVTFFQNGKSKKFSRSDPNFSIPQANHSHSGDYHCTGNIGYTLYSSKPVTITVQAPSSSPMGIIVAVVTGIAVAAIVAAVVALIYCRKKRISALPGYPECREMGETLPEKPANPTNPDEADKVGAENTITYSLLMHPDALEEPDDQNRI
# T2: soluble mouse FcγRII, His-tagged (mouse, UniProt P08101 30-210, limits assumed)
# T2 construct: Captured on the chip through an anti-His antibody
# T2 sequence (looked up): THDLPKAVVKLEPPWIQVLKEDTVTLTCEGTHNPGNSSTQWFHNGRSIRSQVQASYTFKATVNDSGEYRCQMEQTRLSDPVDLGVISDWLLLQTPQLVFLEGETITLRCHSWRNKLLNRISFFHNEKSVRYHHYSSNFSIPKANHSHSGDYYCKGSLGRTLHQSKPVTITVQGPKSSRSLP
# B1: M103205H795-MY174/M103202L889-SK1 (antibody, human IgG1, kappa, name in EU numbering)
# heavy: QVTLKESGPVLVKPTETLTLTCTVSGIDLSHDDISWVRQAPGKGLEWVGIISYAGSTYYASWAKGRLTISKDTSKNQVVLTMTNMDPVDTATYYCARGVPAYSHGGDLWGQGTLVTVSSASTKGPSVFPLAPSSKSTSGGTAALGCLVKDYFPEPVTVSWNSGALTSGVHTFPAVLQSSGLYSLSSVVTVPSSSLGTQTYICNVNHKPSNTKVDKKVEPKSCDKTHTCPPCPAPELLNGPSVFLFPPKPKDTLMISRTPEVTCVVVDVSEEDPEVKFNWYVDGVEVHNAKTKPREEQYNSTYRVVSVLTVLHQDWLNGKEYKCKVSNKALPAPIEKTISKAKGQPREPQVYTLPPSREEMTKNQVSLTCLVKGFYPSDIAVEWESNGQPENNYKTTPIVLDSDGSFFLYSKLTVDKSRWQQGNVFSCSVMHEALHNHYTQKSLSLSP
# light: DIVMTQSPATLSLSPGERATLSCTSSQSVYHANWLSWFQQKPGQPPKLLIYWASTLAYGVPSRFSGSGSGTDFTLTISSLQPEDAATYYCAGGYGGGRYAFGQGTKVEIKRTVAAPSVFIFPPSDEQLKSGTASVVCLLNNFYPREAKVQWKVDNALQSGNSQESVTEQDSKDSTYSLSSTLTLSKADYEKHKVYACEVTHQGLSSPVTKSFNRGEC
# notes: EU numbering
# B2: M103205H795-MY206/M103202L889-SK1 (antibody, human IgG1, kappa, name in EU numbering)
# heavy: B1 heavy with S241V, E270D, Q297L, A332K, I398P
# light: B1 light
# notes: substitutions in EU numbering, introduced into M103205H795-SG1
# B3: M103205H795-MY199/M103202L889-SK1 (antibody, human IgG1, kappa, name in EU numbering)
# heavy: B1 heavy with A332K, I398P
# light: B1 light
# notes: as for B2
# B4: M103205H795-MY518/M103202L889-SK1 (antibody)
# heavy: B1 heavy with L237W, E270D, Q297L, K328T, A332K, I398P
# light: B1 light
# B5: MS_M103205H795-SG1/M103202L889-SK1 (antibody, human IgG1, kappa)
# heavy: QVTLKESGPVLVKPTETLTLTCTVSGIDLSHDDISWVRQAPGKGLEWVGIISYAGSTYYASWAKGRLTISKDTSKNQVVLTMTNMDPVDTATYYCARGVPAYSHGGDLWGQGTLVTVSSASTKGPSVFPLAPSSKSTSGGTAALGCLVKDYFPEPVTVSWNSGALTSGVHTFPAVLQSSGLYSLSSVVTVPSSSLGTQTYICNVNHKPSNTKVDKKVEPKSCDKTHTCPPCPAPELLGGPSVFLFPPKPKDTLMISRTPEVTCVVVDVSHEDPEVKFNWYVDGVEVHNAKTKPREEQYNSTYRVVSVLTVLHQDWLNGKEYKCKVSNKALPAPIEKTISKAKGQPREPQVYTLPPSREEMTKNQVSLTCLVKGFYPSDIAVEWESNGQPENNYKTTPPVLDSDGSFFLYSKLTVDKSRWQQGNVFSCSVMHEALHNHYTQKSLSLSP
# light: B1 light
# notes: parent antibody of the Fc variants; human heavy chain constant region SG1; also called MS1032LO06-SG1
# B6: M103205H795-MY350/M103202L889-SK1 (antibody, human IgG1, kappa, name in EU numbering)
# heavy: B1 heavy with L237W, A332K, I398M
# light: B1 light
# notes: Fc variant of MS1032LO06-SG1; positions in EU numbering
# B7: M103205H795-MY518/M103202L889-SK1 (antibody)
# heavy: B1 heavy with L237W, E270D, Q297L, K328T, A332K, I398P
# light: B1 light
# notes: Fc variant of MS1032LO06-SG1; EU numbering
# B8: M103205H795-P1550m/M103202L889-SK1 (antibody, human IgG1, kappa, name in EU numbering)
# heavy: B1 heavy with N238G, E270H, Q313R, E390R, I398P, D403R
# light: B1 light
# notes: copies: 2 + 2
# B9: M103205H795-P1553m/M103202L889-SK1 (antibody, human IgG1, kappa, name in EU numbering)
# heavy: B1 heavy with N238G, E270H, G387R, I398P, G404R, D415K
# light: B1 light
# notes: copies: 2 + 2
# B10: M103205H795-P1552m/M103202L889-SK1 (antibody, human IgG1, kappa, name in EU numbering)
# heavy: B1 heavy with N238G, E270H, G387R, I398P, D403R, D415K
# light: B1 light
# notes: copies: 2 + 2
# B11: M103205H795-P1551m/M103202L889-SK1 (antibody, human IgG1, kappa, name in EU numbering)
# heavy: B1 heavy with N238G, E270H, Q313R, E390R, I398P, G404R
# light: B1 light
# notes: copies: 2 + 2
# B12: MS1032LO06-P1499m (antibody, human IgG1, kappa, name in EU numbering)
# heavy: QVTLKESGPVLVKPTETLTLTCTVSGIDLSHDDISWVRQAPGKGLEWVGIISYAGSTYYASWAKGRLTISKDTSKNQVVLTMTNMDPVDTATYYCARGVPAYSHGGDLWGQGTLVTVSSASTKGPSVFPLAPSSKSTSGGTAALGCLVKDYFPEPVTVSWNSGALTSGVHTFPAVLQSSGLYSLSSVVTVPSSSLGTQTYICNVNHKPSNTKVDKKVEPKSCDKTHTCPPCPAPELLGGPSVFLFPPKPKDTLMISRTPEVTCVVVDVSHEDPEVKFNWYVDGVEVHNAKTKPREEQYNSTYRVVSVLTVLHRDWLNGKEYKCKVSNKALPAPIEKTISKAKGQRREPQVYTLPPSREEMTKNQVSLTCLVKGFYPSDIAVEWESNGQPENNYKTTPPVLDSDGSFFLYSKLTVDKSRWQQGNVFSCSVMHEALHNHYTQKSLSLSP
# light: B1 light
# notes: also called M103205H795-P1499m
# B13: MS1032LO06-P1383m (antibody, human IgG1, kappa, name in EU numbering)
# heavy: B1 heavy with N238G, E270H, Q313R, I398P, S402R, D415K
# light: B1 light
# notes: also called M103205H795-P1383m; copies: 2 + 2
# B14: MS1032LO06-P1378m (antibody, human IgG1, kappa, name in EU numbering)
# heavy: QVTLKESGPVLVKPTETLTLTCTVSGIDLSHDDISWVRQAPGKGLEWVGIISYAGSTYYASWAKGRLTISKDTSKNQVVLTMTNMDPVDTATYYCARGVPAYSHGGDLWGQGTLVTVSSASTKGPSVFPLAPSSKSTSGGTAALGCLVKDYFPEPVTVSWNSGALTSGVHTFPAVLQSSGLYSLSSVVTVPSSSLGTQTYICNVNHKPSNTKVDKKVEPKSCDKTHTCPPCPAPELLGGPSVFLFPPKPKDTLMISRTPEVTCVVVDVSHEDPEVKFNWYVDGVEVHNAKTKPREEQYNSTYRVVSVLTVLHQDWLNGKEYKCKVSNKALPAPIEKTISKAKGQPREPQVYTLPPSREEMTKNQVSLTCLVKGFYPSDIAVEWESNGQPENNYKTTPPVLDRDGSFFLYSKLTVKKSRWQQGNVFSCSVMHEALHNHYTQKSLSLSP
# light: B1 light
# notes: also called M103205H795-P1378m; copies: 2 + 2
# B15: M103205H795-P1555m/M103202L889-SK1 (antibody, human IgG1, kappa, name in EU numbering)
# heavy: B1 heavy with N238G, E270H, E390R, I398P, G404R, D415K
# light: B1 light
# notes: copies: 2 + 2
# B16: M103205H795-SG141/M103202L889-SK1 (antibody, human IgG1, kappa, name in EU numbering)
# heavy: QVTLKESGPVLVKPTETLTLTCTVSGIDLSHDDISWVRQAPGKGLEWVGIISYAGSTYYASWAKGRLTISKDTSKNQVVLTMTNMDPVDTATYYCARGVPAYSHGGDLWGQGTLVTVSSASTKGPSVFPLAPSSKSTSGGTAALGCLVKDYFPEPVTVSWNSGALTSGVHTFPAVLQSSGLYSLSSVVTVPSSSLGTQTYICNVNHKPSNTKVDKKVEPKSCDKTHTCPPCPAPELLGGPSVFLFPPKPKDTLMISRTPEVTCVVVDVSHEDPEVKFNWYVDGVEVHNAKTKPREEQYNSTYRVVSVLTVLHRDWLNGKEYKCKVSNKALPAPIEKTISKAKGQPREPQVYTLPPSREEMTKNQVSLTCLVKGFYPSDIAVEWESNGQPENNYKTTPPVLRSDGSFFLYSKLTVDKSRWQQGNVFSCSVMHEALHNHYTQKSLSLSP
# light: B1 light
# notes: copies: 2 + 2
# Target: T3, cynomolgus monkey FcγRIIIaS extracellular domain with C-terminal His-tag (cynomolgus monkey, UniProt A3RFZ7 21-206 (rhesus entry))
# T3 construct: also called cyno FcgRIIIaS; cynoFcγRIIIaS; not shown: His-tag added to C-terminus
# Experiment: SPR Biacore, antibody captured, FcgR analyte
# Description: (§1) The kinetic analysis of interactions between these antibodies and FcγR was carried out using BIACORE® T200 or BIACORE® 4000 (GE Healthcare). HBS-EP+ (GE Healthcare) was used as the running buffer, and the measurement temperature was set to 25° C. […] After the measurement, the antibody captured on the chip was washed off by allowing reaction with 10 mM glycine-HCl, pH1.5 and 25 mM NaOH so that the chip was regenerated and used repeatedly. The sensorgrams obtained as measurement results were analyzed by the 1:1 Langmuir binding model using the BIACORE® Evaluation Software to calculate the binding rate constant ka (L/mol/s) and dissociation rate constant kd (1/s), and the dissociation constant KD (mol/L) was calculated from these values. […] Regarding such interactions, KD values were calculated using the following 1:1 binding model described in BIACORE® T100 Software Handbook BR1006-48 Edition AE.
# Target sequence in this assay (A3RFZ7 21-206): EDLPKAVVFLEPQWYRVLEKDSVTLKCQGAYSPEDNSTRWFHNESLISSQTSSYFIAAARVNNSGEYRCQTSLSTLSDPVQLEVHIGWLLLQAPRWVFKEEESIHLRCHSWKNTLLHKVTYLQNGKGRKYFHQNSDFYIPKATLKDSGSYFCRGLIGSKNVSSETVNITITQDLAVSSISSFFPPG
KD fold (SG1 = 1) [fold],Kd [µM],Binder
0.14,2.5,B1
0.11,,B2
0.09,,B3
0.09,,B4

# Target: T4, cynomolgus monkey FcγRIIIaS extracellular domain with C-terminal His-tag (cynomolgus monkey, UniProt A3RFZ7 21-206 (rhesus entry))
# T4 construct: also called cyno FcgRIIIaS; cynoFcγRIIIaS; not shown: His-tag added to the C-terminus
# Experiment: SPR (BIACORE), antibody captured, FcgR analyte
# Description: as §1
# Target sequence in this assay (A3RFZ7 21-206): as above
row,Kd [µM],Binder
1,0.56,B5
2,6.6,B6
3,4.2,B7

# Target: T1, human FcγRIIb constitutively expressed …
# Experiment: cell-based or functional assay
row,celluar uptake (labelled human latent myostatin taken up as antigen-antibody complex),Binder
1,6.43 relative to SG1 = 1.00,B8
2,2.86 relative to SG1 = 1.00,B9
3,4.44 relative to SG1 = 1.00,B10
4,2.91 relative to SG1 = 1.00,B11
5,3.61 relative to SG1 = 1.00,B12
6,5.68 relative to SG1 = 1.00,B13
7,3.86 relative to SG1 = 1.00,B14
8,3.71 relative to SG1 = 1.00,B15
9,4.42 relative to SG1 = 1.00,B16

# Target: T2, soluble mouse FcγRII, His-tagged
# Experiment: SPR, mouse FcγRII captured via His-tag, antigen-antibody complex injected, pH 7.4, 25 C
# In short: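 Biacore T200; His-tagged soluble FcγRII captured on an anti-His antibody chip, then antibody–antigen complexes injected. Running buffer 20 mM ACES, 150 mM NaCl, 1.2 mM CaCl₂, 0.05% Tween 20, pH 7.4; regeneration with 10 mM glycine-HCl pH 1.5; all at 25° C.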
row,"biacore IC binding (relative, SG1 = 1.00)",Binder
1,1.63 relative to SG1,B8
2,1.47 relative to SG1,B9
3,2.19 relative to SG1,B10
4,1.33 relative to SG1,B11
5,1.98 relative to SG1,B12
6,1.41 relative to SG1,B13
7,1.23 relative to SG1,B14
8,2.01 relative to SG1,B15
9,1.64 relative to SG1,B16

# — patent US20250076311A1 (Chugai, published 2025)
